Entries after “also recorded” stand apart in the source; their conditions may differ.
Experiments:
[1] = target: T1, soluble truncated uPARAP protein containing the first 3 N-terminal domains of human uPARAP (Homo sapiens, UniProt Q9UBG0); assay: ELISA analysis of uPARAP-binding of mAbs; conditions: after reduction step of conjugation, or in ADC form
T1 construct: a soluble truncated uPARAP protein containing the first 3 N-terminal domains of human uPARAP
T1 sequence (Q9UBG0 31-365): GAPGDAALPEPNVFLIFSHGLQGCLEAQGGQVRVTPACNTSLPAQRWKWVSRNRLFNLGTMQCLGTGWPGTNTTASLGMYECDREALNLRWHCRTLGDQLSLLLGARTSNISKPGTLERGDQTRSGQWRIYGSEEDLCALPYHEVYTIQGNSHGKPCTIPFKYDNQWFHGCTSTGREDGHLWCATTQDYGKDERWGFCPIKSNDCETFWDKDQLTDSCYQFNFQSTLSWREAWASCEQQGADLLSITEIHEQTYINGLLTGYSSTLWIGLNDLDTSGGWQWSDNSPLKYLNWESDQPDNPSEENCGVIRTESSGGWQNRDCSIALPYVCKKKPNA
Method: Untreated mAbs (2h9 or aTNP), same mAbs subjected to the reduction procedure of conjugation (see above), or ADCs 2h9-vc-MMAE or aTNP-vc-MMAE, were then employed as a primary antibody, followed by a HRP-conjugated rabbit anti-mouse Ig secondary antibody. Finally an o-phenylenediamine dihydrochloride-containing substrate solution was added, and the color reaction was stopped by adding 1M H2SO4. Plates were read at 492 nm using a plate reader.

mouse uPARAP = target: T2, mouse uPARAP (Mus musculus, UniProt Q64449); assay: Antibody reactivity with uPARAP; type: binding; conditions: listed as 2h9
T2 sequence (Q64449 31-1479): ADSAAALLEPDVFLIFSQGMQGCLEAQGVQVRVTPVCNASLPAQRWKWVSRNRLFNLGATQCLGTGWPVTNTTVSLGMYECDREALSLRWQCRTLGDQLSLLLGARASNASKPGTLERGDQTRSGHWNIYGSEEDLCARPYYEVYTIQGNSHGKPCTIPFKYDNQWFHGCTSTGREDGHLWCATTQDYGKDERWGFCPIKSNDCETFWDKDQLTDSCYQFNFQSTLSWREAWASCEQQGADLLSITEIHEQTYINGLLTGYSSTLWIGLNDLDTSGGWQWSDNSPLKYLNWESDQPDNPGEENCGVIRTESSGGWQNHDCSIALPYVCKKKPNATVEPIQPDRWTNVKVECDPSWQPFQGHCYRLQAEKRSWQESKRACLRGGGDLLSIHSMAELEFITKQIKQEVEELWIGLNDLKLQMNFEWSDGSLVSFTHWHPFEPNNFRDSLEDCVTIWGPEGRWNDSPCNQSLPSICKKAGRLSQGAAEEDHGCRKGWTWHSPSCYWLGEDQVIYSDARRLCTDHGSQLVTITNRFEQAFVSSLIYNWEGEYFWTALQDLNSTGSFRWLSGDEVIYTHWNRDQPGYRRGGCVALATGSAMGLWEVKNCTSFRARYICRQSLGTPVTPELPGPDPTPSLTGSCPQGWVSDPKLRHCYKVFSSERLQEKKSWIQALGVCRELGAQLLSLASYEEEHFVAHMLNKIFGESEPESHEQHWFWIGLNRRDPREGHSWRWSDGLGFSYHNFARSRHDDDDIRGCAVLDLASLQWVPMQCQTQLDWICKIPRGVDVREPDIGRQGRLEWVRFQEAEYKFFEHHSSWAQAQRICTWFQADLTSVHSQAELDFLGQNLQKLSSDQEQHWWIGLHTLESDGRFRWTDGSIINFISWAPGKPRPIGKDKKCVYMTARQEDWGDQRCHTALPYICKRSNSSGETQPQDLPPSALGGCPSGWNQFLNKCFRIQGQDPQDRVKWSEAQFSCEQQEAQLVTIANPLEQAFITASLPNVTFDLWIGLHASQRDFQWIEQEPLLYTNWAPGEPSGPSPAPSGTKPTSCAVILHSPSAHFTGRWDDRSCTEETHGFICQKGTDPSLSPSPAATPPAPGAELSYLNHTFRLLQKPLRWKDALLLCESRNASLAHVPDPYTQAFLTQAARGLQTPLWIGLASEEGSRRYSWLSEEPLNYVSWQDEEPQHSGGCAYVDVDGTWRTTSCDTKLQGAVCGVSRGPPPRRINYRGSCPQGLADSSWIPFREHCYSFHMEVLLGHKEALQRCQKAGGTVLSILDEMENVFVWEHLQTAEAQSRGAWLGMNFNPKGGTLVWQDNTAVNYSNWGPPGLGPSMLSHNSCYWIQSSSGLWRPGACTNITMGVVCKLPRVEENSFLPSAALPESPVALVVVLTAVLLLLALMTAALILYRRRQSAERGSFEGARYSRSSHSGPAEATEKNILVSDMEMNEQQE

B1: mAb 2h9: mouse monoclonal IgG1k anti-uPARAP antibody clone 2.h.9: F12, produced by hybridoma cell culture (protein)
light: DIQMTQSPASQSASLGESVTITCLASQTIGTWLAWYQQKPGKSPQLLIYAATTLTDGVPSRFSGAGSGTKFSLKISSLQAEDFASYFCQEFFSTPFTFGSGTKLELKRADAAPTVSIFPPSSEQLTSGGASVVCFLNNFYPKDINVKWKIDGGERQNGVLNSWTDQDSKDSTYSMSSTLTLTKDEYERHNSYTCEATHKTSTSPIVKSFNRNEC
heavy: QVQLQQPGTELVRPGLSVKLSCKASGYTFTSYWMNWVKQRPGQGLEWIGMIHPSNDEKRINQKFKDKATLTVDKFSSTVYMQVSSPTSEDSAVYYCARGGGDYVGDYALDFWGQGTSVTVSSAKTTPPSVYPLAPGSAAQTNSMVTLGCLVKGYFPEPVTVTWNSGSLSSGVHTFPAVLQSDLYTLSSSVTVPSSTWPSETVTCNVAHPASSTKVDKKIVPRDCGCKPCICTVPEVSSVFIFPPKPKDVLTITLTPKVTCVVVDISKDDPEVQFSWFVDDVEVHTAQTQPREEQFNSTFRSVSELPIMHQDWLNGKEFKCRVNSAAFPAPIEKTISKTKGRPKAPQVYTIPPPKEQMAKDKVSLTCMITDFFPEDITVEWQWNGQPAENYKNTQPIMDTDGSYFIYSKLNVQKSNWEAGNTFTCSVLHEGLHNHHTEKSLSHSPGK
- Affinity towards uPARAP following conjugation procedure [1]: retained affinity
- Affinity towards uPARAP following conjugation procedure ([1]; listed as 2h9): negligible loss of affinity
- Reactivity with mouse uPARAP (mouse uPARAP): reactive against both human and murine uPARAP; also recorded: reacts with both human and mouse uPARAP

— patent US11819552B2, “Antibody-drug conjugates targeting uPARAP” (RIGSHOSPITALET, priority 2016, dated 2023)
